Positions count from the first letter of the chain named.
B1: h10G1 IgG (humanized 10G1) (antibody, V domains shown)
VH: EIQLVQSGSELKKPGASVKVSCKASGYPFTTYGMSWVRQAPGQGLEWMGWINTDSGVPTYADDFKGRFVFSLDTSVSTAYLQISSLKAEDTAVYFCARNIYYGWGNFDYWGQGTLVTVSS
VL: EIVMTQSPDFQSVTPKEKVTITCRASQDIYRNLHWYQQKPDQTPKLLIKHASDSISGIPSRFSGSGSGTDFTLTINSLEAEDAAAYYCLQGYSMPYTFGGGTKVEIKG
B2: mAb1.v7.NGS10 IgG (antibody, V domains shown)
VH: EVQLVQSGAEVKKPGASVKVSCKASGFTFTNNFMHWVRQAPGQGLEWIGFIHANSGITNINEKFKNRVTMTTDTSTSTAYMELRSLRSEDTAVYYCRSDGIYEGYFDYWGQGTLVTVSS
VL: DIQLTQSPSSLSASVGDRVTITCKASQNVGTAIVWYQQKPGKAPKVLIYSASTRYTGVPSRFSGSGSGTDFTLTISSLQPEDFATYYCQQYSSSPLTFGQGTKVEIKG
B3: mAb1.v7.NGS9 IgG (antibody, V domains shown)
VH: B2 VH with F50M, I101V
VL: B2 VL
B4: mAb1.v7.NGS11 IgG (antibody, V domains shown)
VH: B2 VH with I101V
VL: B2 VL
B5: mAb1.v7.NGS8 IgG (antibody, V domains shown)
VH: B2 VH with F50M
VL: B2 VL

Molecular target: human CD96 on primary human immune cells (PBMCs, NK cells, CD4+ T cells) (human) (UniProt P40200)
Test: FACS, Ab 0.0256 nM

% positive [%] | Binder
14.6 | B1
16.9 | B2
22.5 | B3
11.6 | B4
22 | B5

Molecular target: human CD96 on primary human immune cells (PBMCs, NK cells, CD4+ T cells) (human) (UniProt P40200)
Test: FACS, Ab 16 nM

% positive [%] | Binder
81.4 | B1
97.1 | B2
97.1 | B3
96.7 | B4
96.2 | B5

Molecular target: human CD96 on primary human immune cells (PBMCs, NK cells, CD4+ T cells) (human) (UniProt P40200)
Test: FACS, Ab 3.2 nM

% positive [%] | Binder
64.4 | B1
93.8 | B2
95.1 | B3
94.2 | B4
92.3 | B5

Molecular target: human CD96 on primary human immune cells (PBMCs, NK cells, CD4+ T cells) (human) (UniProt P40200)
Test: FACS, % positive curve

EC50 [nM] | Binder
0.28 | B1
0.069 | B2
0.071 | B3
0.083 | B4
0.072 | B5

Molecular target: human CD96 on primary human immune cells (PBMCs, NK cells, CD4+ T cells) (human) (UniProt P40200)
Test: FACS, Ab 80 nM

% positive [%] | Binder
88.7 | B1
97.7 | B2
97.8 | B3
97.2 | B4
97.8 | B5

Molecular target: human CD96 on primary human immune cells (PBMCs, NK cells, CD4+ T cells) (human) (UniProt P40200)
Test: FACS, Ab 0.64 nM

% positive [%] | Binder
53.5 | B1
88.8 | B2
90.8 | B3
89.7 | B4
89.3 | B5

Molecular target: human CD96 on primary human immune cells (PBMCs, NK cells, CD4+ T cells) (human) (UniProt P40200)
Test: FACS, Ab 0.128 nM

% positive [%] | Binder
39.1 | B1
66.7 | B2
64.7 | B3
61.1 | B4
64.2 | B5

Molecular target: human CD96 on primary human immune cells (PBMCs, NK cells, CD4+ T cells) (human) (UniProt P40200)
Test: cell-based or functional assay

Human NK cell IFNγ secretion (fold over background), Ab 0.0032 nM [fold] | Human NK cell IFNγ secretion (fold over background), Ab 0.016 nM [fold] | Human NK cell IFNγ secretion (fold over background), Ab 0.08 nM [fold] | Human NK cell IFNγ secretion (fold over background), Ab 0.4 nM [fold] | Human NK cell IFNγ secretion (fold over background), Ab 2 nM [fold] | Human NK cell IFNγ secretion (fold over background), Ab 10 nM [fold] | Human NK cell IFNγ secretion (fold over background), Ab 50 nM [fold] | Human NK cell IFNγ secretion (fold over background), Ab 250 nM [fold] | Human NK cell IFNγ secretion, EC50 [nM] | Binder
1 | 1.13 | 1.38 | 1.96 | 2.08 | 2.19 | 2.21 | 1.87 | 0.112 | B1
1 | 1.24 | 1.36 | 1.81 | 2.12 | 1.94 | 2.05 | 1.87 | 0.084 | B2

Molecular target: human CD96 on primary human immune cells (PBMCs, NK cells, CD4+ T cells) (human) (UniProt P40200)
Test: FACS, Ab 0.00512 nM

% positive [%] | Binder
5.4 | B1
6.1 | B2
8.2 | B3
5.4 | B4
8.6 | B5

Reference: US12365732
